Assay [1] concerns the target T1, recombinant purified CD123-Fc fusion protein (Bio-Techne/R&D Systems) (human, UniProt P26951 19-305).
T1 construct: Bought; also called Fc-fusion of the CD123 antigen; recombinant CD123
T1 sequence: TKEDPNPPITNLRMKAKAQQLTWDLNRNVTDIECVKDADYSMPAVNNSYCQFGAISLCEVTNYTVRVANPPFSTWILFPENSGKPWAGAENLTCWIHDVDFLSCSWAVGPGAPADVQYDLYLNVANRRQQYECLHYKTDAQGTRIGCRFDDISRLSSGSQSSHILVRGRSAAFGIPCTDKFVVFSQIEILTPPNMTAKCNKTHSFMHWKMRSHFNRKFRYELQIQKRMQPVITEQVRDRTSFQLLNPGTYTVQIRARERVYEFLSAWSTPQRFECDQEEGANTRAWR
The assay can be described thus: BLI, CD123-Fc on anti-human IgG Fc capture sensors; SD 4.3. Here is the method: (§1) To determine the kinetics of binding of humanized 1D2-5C8var1 variants to CD123, recombinant purified CD123-Fc fusion protein (Bio-Techne/R&D Systems) was loaded to a density of 1 nm onto anti-human IgG Fc Capture sensors (using a concentration of 5 μg/ml) for an Octet Red96e (Sartorius) instrument. Different sensors were then dipped in different concentrations of humanized 1D2-5C8var1 variants, starting at 50 nM and two-fold dilutions thereof; dilutions were made in 10× kinetic buffer (10×KB) provided by the supplier. From the obtained sensorgrams, the kinetic association- and dissociation rate constants were determined by curve fitting. The association- and dissociation rate constants, when fitting was possible, were used to calculate the affinity of the humanized 1D2-5C8var1 variants for binding to CD123. […] For reference, the non-humanized (parental) 1D2 was included in these experiments.

The target in assay [2] is T1, recombinant purified CD123-Fc fusion …. The assay can be described thus: BLI, CD123-Fc on anti-human IgG Fc capture sensors; SD 1.5. Here is the method:
as §1

The target is the same in assay [3]. The assay can be described thus: BLI, CD123-Fc on anti-human IgG Fc capture sensors; SD 0.4. The protocol: as §1
For orientation: Biolayer interferometry detects binding as a change in optical thickness at a sensor tip.

Assay [4] has the same target. The assay can be described thus: BLI, CD123-Fc on anti-human IgG Fc capture sensors, Octet Red96e. Here is the method:
as §1

Assay [5] shares this target. The assay can be described thus: BLI, CD123-Fc on anti-human IgG Fc capture sensors; SD 0.5. Here is the method: as §1
The target of assay [6] is human CD123 co-expressed with CD131 on 293F cells (human, UniProt P26951 19-378; P32927 17-897). The assay can be described thus: flow cytometry titration on 293F cells transiently expressing CD123 and CD131, anti-VHH detection. The protocol: (§2) FIG. 3: Determination of the apparent affinity of 1D2-5C8var1 for binding to CD123 using flow cytometry. […] The geometric mean of the fluorescence intensity is plotted as a function of the antibody concentration used. The EC50 value was determined by curve fitting.
(§3) Expression constructs for human CD123 and for the common β chain of the receptor (CD131) were purchased from Invivogen. Plasmids were transformed to chemically competent DH5α bacteria and a single colony growing on selective medium was used to inoculate a 50 ml culture to amplify both constructs. […] Either plasmid alone, or a mix of the two plasmids was used for transfection. As negative control, untransfected cells were also used for flow cytometry. A day after transfection, cells were used to test the binding of the bispecific VHH using staining in FACS. Briefly, binding of a saturating concentration of 100 nM bispecific VHH to transfected cells was detected with an AF647-labeled anti-VHH (Genscript) antibody and staining was visualized using a FACS Celesta (Becton and Dickinson).
(§4) The former cells (expressing CD131) were used as negative control.
(Flow cytometry measures light scatter and fluorescence of single cells or particles in a stream.)

The target of assay [7] is T2, BSA (bovine, UniProt P02769).
T2 construct: also called bovine serum albumin, negative control coating
T2 sequence (P02769 25-607 limits assumed): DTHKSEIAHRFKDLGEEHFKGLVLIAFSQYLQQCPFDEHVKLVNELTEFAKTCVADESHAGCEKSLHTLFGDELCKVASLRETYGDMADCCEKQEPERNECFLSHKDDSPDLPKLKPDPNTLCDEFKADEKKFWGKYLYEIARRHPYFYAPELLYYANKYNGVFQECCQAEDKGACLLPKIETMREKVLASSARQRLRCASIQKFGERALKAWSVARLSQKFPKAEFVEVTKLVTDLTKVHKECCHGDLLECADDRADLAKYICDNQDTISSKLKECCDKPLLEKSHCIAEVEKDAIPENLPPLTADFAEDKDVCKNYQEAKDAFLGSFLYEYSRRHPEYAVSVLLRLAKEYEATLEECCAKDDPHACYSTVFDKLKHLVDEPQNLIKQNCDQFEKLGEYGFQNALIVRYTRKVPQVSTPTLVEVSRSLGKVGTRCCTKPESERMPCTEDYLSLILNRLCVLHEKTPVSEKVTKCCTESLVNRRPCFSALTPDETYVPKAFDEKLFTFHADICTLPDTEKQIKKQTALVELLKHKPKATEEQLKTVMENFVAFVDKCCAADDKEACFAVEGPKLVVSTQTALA
The assay can be described thus: ELISA, wells coated with 1% BSA (panel BSA), HRP anti-VHH detection. From the text: FIG. 1: ELISA showing binding of all different bispecific VHHs to CD123, the Vγ9Vδ2 (GDT) TCR and BSA (as negative control). OD values are depicted; values are the mean of duplicate measurements; error bars indicate standard errors of the mean. A mono-valent anti-Vδ2 VHH was used as control for the TCR staining (“TCR control”) and a commercially available anti-CD123 antibody (“anti-CD123”) was used as control for the CD123 antigen coatings. “No AB” indicates a negative control without primary antibody.
Recombinant, purified CD123 antigen (extra-cellular domain; Sino Biological), or an Fc-fusion of the CD123 antigen (Bio-Techne/R&D Systems) was coated to the wells of an ELISA plate (Greiner) in PBS at a concentration of 2 μg/ml. As a negative control, wells were coated with 1% (w/v) BSA. An in-house designed, produced and purified recombinant form of the extra-cellular domains of the human Vγ9 and Vδ2 TCR chains fused to a human Fc was also coated as antigen at 2 μg/ml. After coating and blocking of the wells with 2% (w/v) BSA, bispecific VHH proteins were tested for binding at a saturating concentration of 50 nM and bound VHH was detected using an HRP-labeled anti-VHH antibody (Genscript) and staining using 3,3′,5,5′-tetramethylbenzidine (TMB)/H2O2.
For orientation: An ELISA detects its analyte on a solid surface through an enzyme-linked reagent.

In assay [8] the target is T3, human CD123 expressed on cells (human, UniProt P26951 19-378).
T3 construct: also called interleukin-3 receptor alpha chain
The assay can be described thus: flow cytometry titration on 293F cells transiently expressing CD123; apparent affinity, EC50 by curve fitting.

Assay [9] concerns the target T3, human CD123 expressed on cells. The assay can be described thus: flow cytometry titration on 293F cells transiently expressing CD123, anti-VHH detection. The protocol:
as §2, §3, §4

Assay [10] has the same target. The assay can be described thus: cell-based or functional assay.
For assay [11], the target named is T1, recombinant purified CD123-Fc fusion …. The assay can be described thus: BLI, CD123-Fc on anti-human IgG Fc capture sensors; SD 0.7. Here is the method: as §1
Assay [12] concerns the target T4, human CD131 (common β chain of the IL3 receptor) expressed on 293F cells (human, UniProt P32927 17-897).
T4 sequence: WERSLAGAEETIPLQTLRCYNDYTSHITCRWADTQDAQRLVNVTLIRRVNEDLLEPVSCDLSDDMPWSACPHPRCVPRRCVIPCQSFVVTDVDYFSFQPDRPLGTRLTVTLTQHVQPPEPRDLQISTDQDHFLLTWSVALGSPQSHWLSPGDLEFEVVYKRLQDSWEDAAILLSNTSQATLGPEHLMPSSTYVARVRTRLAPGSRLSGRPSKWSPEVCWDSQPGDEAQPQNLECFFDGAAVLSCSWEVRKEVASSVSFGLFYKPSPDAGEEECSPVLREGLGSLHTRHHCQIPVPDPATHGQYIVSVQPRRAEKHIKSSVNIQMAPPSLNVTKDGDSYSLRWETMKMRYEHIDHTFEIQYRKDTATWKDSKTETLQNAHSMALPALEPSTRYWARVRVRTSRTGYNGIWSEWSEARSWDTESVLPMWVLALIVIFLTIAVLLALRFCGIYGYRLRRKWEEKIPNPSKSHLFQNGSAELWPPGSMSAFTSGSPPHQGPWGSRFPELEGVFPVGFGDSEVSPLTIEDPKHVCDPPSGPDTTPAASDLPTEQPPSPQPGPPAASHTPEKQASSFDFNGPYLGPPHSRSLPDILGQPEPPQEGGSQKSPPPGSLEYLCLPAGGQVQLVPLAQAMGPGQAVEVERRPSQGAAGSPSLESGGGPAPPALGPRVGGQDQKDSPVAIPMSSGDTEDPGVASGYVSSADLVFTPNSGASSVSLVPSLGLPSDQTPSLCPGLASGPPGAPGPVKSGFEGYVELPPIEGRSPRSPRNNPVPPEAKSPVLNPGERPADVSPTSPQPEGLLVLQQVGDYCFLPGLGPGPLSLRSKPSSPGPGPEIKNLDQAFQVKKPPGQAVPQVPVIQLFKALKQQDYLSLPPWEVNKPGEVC
The assay can be described thus: flow cytometry on 293F cells transiently expressing CD131, AF647-labeled anti-VHH detection. Here is the method: as §3

In assay [13] the target is T1, recombinant purified CD123-Fc fusion …. The assay can be described thus: BLI, CD123-Fc on anti-human IgG Fc capture sensors, Octet Red96e, two measurements. Here is the method:
To determine the kinetics of binding of 1D2-5C8var1 to CD123, recombinant purified CD123-Fc fusion protein (Bio-Techne/R&D Systems) was loaded to a density of 1nm onto anti-human IgG Fc Capture sensors (using a concentration of 5 μg/ml) for an Octet Red96e (Sartorius) instrument. Different sensors were then dipped in different concentrations of 1D2-5C8var1; dilutions were made in 10× kinetic buffer (10×KB) provided by the supplier. From the obtained sensorgrams, the kinetic association- and dissociation rate constants were determined by curve fitting.
The latter is depicted as straight lines in the figure. This was used to determine the kinetic association- and dissociation rate constants and thereby the affinity of the anti-CD123 VHH 1D2.

Changes are numbered by the printed parent chain. “And” between values parts separate entries of the source, which are not always exact repeats. Equal values may be shown once.

This is an account of results in patent publication US20240141071A1 (LAVA THERAPEUTICS N V, published 2024).

B1: humanized 1D2-5C8var1 variant with 1D2 var3 (SEQ ID NO:27) (bispecific antibody)
chain: EVQLVESGGGLVQPGGSLRLSCAASGRTASSYVMSWFRQAPGKEREWVAVINWNGDSTYYADSVKGRFTISRDNSKNTVYLQMNSLRAEDTAVYYCAADTRREWYRDGYWGPPARYEYDYRGQGTLVTVSSGGGGSEVQLLESGGGSVQPGGSLRLSCAASGRPFSNYAMSWFRQAPGKEREFVSAISWSGGSTSYADSVKGRFTISRDNSKNTLYLQMNSLRAEDTAVYYCAAQFSGADYGFGRLGIRGYEYDYWGQGTQVTVSSAAAEPEA
notes: See note of m19
B1: in assay [1], the Kd (in general, the free concentration of one partner at which half of the binding sites on the other are occupied at equilibrium, for simple one-to-one binding) stood at 14.9 nM.

B2: humanized 1D2-5C8var1 variant with 1D2 var5 (SEQ ID NO:29) (bispecific antibody)
chain: B1 chain with W47F
notes: See note of m19
Take B2: the Kd in assay [2] came out at 7.7 nM.

B3: humanized 1D2-5C8var1 variant with 1D2 var1 (SEQ ID NO:25) (bispecific antibody)
chain: B1 chain with S35G, W47F, A49S, V79L, L126Q
As to B3, in [3], the Kd worked out at 7.2 nM.

B4: humanized 1D2-5C8var1 variant with 1D2 var7 (SEQ ID NO:31) (bispecific antibody)
chain: B1 chain with F37V, E44G, R45L, A49S, V79L
notes: See note of m19
As for B4, the binding result in assay [4] is listed as “no binding (tested: 50 nM (highest concentration tested))”.

B5: humanized 1D2-5C8var1 variant with 1D2 var9 (SEQ ID NO:33) (bispecific antibody)
chain: B1 chain with P14A, S35G, A61T, T69A, S75A, L126Q
notes: See note of m19
For B5, the Kd in assay [5] was determined as 2.6 nM.

B6: 1D2-5C8var1 bispecific VHH (bispecific antibody)
chain: B1 chain with P14A, S35G, W47F, A61T, T69A, S75A, R87K, A88P, L126Q
notes: Orientation N-term-anti-CD123 VHH-linker-anti-Vδ2 VHH-C-tag; also called parental 1D2
Consider B6, for which the EC50 (read off the curve) – broadly, the concentration at which the effect is half-maximal – in [6] was ~3 nM. The binding result in assay [7] is listed as “no binding (tested: 50 nM (single concentration))”. Moreover, in assay [8], the EC50 (commonly the concentration needed to bring the measured effect to its halfway point) is ~3 nM. For the same molecule, the “EC50 (read off the curve)” value in assay [9] is ~3 nM. Besides, in assay [10], the “EC50 for cytotoxicity, C1R-neo target cell lysis by Vγ9Vδ2 T cells, 24 h” value was in the range of 0.001 to 0.002 nM; the “EC50 of T cell activation and lysis of primary AML blasts” value is < 0.001 nM; the “EC50 of THP-1 target cell lysis by Vγ9Vδ2 T cells” value is 1000 nM; the “EC50 of THP-1 target cell lysis by Vγ9Vδ2 T cells, 24 h” value lay in the range of 0.001 to 0.003 nM. In assay [11], the Kd is 3.1 nM. For the same molecule, the binding result in assay [12] is “no binding (tested: 100 nM (single concentration))”. In [13], the Kd is 3 to 5 nM and 5 nM.
